Source: patent US20240116985A1 (published 2024)
Starred links: 1 amine or outer side, 2 acyl side, 3 side chain; linkers in the order of their positions; H or OH if unused. Positions of bridges follow the written chain, without caps; N, C: chain ends. Non-standard residues stand in square brackets, D forms with d. Primed or numbered codes have the meaning given here. B5(10) = 2-amino-2-(pent-4-en-1-yl)hept-6-enoic acid, bis(4-pentenyl)glycine, stitching residue bearing both staples, C=CCCCC(CCCC=C)(N[*:1])C(=O)[*:2]; B5(4) = 2,2-bis(4-pentenyl)glycine = 2-amino-2-(pent-4-en-1-yl)hept-6-enoic acid (stitching residue), C=CCCCC(CCCC=C)(N[*:1])C(=O)[*:2]; B5(20) = 2-amino-2-(pent-4-en-1-yl)hept-6-enoic acid = bis(4-pentenyl)glycine, stitching residue, C=CCCCC(CCCC=C)(N[*:1])C(=O)[*:2]; B5(21) = 2-amino-2-(pent-4-en-1-yl)hept-6-enoic acid, bis(4-pentenyl)glycine (stitching residue), C=CCCCC(CCCC=C)(N[*:1])C(=O)[*:2]; B5(6) = 2-amino-2-(pent-4-en-1-yl)hept-6-enoic acid (bis(4-pentenyl)glycine), stitching residue, C=CCCCC(CCCC=C)(N[*:1])C(=O)[*:2]; SeN = (S)-5-(((allyloxy)carbonyl)(methyl)amino)-2-amino-2-methylpentanoic acid, C=CCOC(=O)N(C)CCC[C@](C)(N[*:1])C(=O)[*:2]; B5 = 2-amino-2-(pent-4-en-1-yl)hept-6-enoic acid, C=CCCCC(CCCC=C)(N[*:1])C(=O)[*:2]; (NHiPr)AsnR = N4-isopropyl-L-asparagine, CC(C)NC(=O)C[C@H](N[*:1])C(=O)[*:2]; B5(28) = 2,2-bis(4-pentenyl)glycine, C=CCCCC(CCCC=C)(N[*:1])C(=O)[*:2]; (NHEt)AsnR = N4-ethyl-L-asparagine, CCNC(=O)C[C@H](N[*:1])C(=O)[*:2]; Phe(2-CONH2) = NC(=O)c1ccccc1C[C@H](N)C(=O)O; S7 = C[C@@](CCCCCC=[*:3])(N[*:1])C(=O)[*:2]; Phe(2-OMe) = COc1ccccc1C[C@H](N)C(=O)O; 2Nal = N[C@@H](Cc1ccc2ccccc2c1)C(=O)O; Bta = N[C@@H](Cc1csc2ccccc12)C(=O)O; αAllylPro = C=CC[C@@]1(C(=O)O)CCCN1; Aad = N[C@@H](CCCC(=O)O)C(=O)O; S8 = C=CCCCCCC[C@](C)(N)C(=O)O; Aib = CC(C)(N)C(=O)O

B1: I-133: Ac-PL3-Asp-Ala-B5-Asp-Glu-Ala-Ala-Phe-Val-S8-Phe-Trp-Aib-NH2 (peptide)
peptide: XDAXDEAAFVXFWX
modifications: not fully specified; N-terminal Ac; PL3 at 1; B5 at 4; S8 at 11; Aib at 14; C-terminal NH2; stapled by olefin metathesis (PL3-B5 and B5-S8)
notes: Stapled peptide
B2: I-512 (peptide)
peptide: Ac-[αAllylPro]DI[B5(20)]DEAAFN[S8][Phe(2-OMe)][Bta]H-NH2
modifications: staple 1-4, 4-11
notes: Stapled peptide composition; also called Ac-PL3-Asp-Ile-B5-Asp-Glu-Ala-Ala-Phe-Asn-S8-2OMeF-BztA-His-NH2
B3: I-514 (peptide)
peptide: Ac-[αAllylPro]DI[B5(20)]DEAAFN[S8][Phe(2-CONH2)][Bta]H-NH2
modifications: staple 1-4, 4-11
notes: Stapled peptide composition; also called Ac-PL3-Asp-Ile-B5-Asp-Glu-Ala-Ala-Phe-Asn-S8-2CBMF-BztA-His-NH2
B4: I-536 (peptide)
peptide: Ac-[αAllylPro]DA[B5(21)][(NHEt)AsnR]DAAFV[S8]F[Bta]Q-NH2
modifications: staple 1-4, 4-11
notes: Stapled peptide composition; also called Ac-PL3-Asp-Ala-B5-[NHEt]AsnR-Asp-Ala-Ala-Phe-Val-S8-Phe-BztA-Gln-NH2
B5: I-535 (peptide)
peptide: Ac-[αAllylPro]DA[B5(21)][(NHiPr)AsnR]DAAFV[S8]F[Bta]Q-NH2
modifications: staple 1-4, 4-11
notes: Stapled peptide composition; also called Ac-PL3-Asp-Ala-B5-[NHiPr]AsnR-Asp-Ala-Ala-Phe-Val-S8-Phe-BztA-Gln-NH2
B6: I-513 (peptide)
peptide: Ac-[αAllylPro]DA[B5(20)]DEAAFN[S8][Phe(2-CONH2)][Bta]H-NH2
modifications: staple 1-4, 4-11
notes: Stapled peptide composition; also called Ac-PL3-Asp-Ala-B5-Asp-Glu-Ala-Ala-Phe-Asn-S8-2CBMF-BztA-His-NH2
B7: I-506 (peptide)
peptide: Ac-[αAllylPro]DL[B5(6)]DEAAFQ[S8]F[Bta]H-NH2
modifications: staple 1-4, 4-11
notes: Stapled peptide composition; also called Ac-PL3-Asp-Leu-B5-Asp-Glu-Ala-Ala-Phe-Gln-S8-Phe-BztA-His-NH2
B8: I-528 (peptide)
peptide: XDIXDEAAFQXFXQ
modifications: not fully specified; N-terminal acetyl (Ac); PL3 at X1, B5 at X4 and S8 at X11 stapled (PL3-B5 and B5-S8, olefin metathesis); 2OMeF at X12; BztA at X13; C-terminal amide (NH2)
notes: Stapled peptide composition; also called Ac-PL3-Asp-Ile-B5-Asp-Glu-Ala-Ala-Phe-Gln-S8-2OMeF-BztA-Gln-NH2
B9: I-508 (peptide)
peptide: XDAXDEAAFQXFXT
modifications: not fully specified; N-terminal acetyl (Ac); PL3 at X1, B5 at X4 and S8 at X11 stapled (PL3-B5 and B5-S8, olefin metathesis); BztA at X13; C-terminal amide (NH2)
notes: Stapled peptide composition; also called Ac-PL3-Asp-Ala-B5-Asp-Glu-Ala-Ala-Phe-Gln-S8-Phe-BztA-Thr-NH2
B10: I-527 (peptide)
peptide: XDIXDEAAFQXFXQ
modifications: not fully specified; N-terminal acetyl (Ac); PL3 at X1, B5 at X4 and S8 at X11 stapled (PL3-B5 and B5-S8, olefin metathesis); 2OMeF at X12; BztA at X13; C-terminal amide (NH2)
notes: as for B8
B11: I-507 (peptide)
peptide: XDAXDEAAFQXFXT
modifications: not fully specified; N-terminal acetyl (Ac); PL3 at X1, B5 at X4 and S8 at X11 stapled (PL3-B5 and B5-S8, olefin metathesis); BztA at X13; C-terminal amide (NH2)
notes: as for B9

molecular target: T1, beta-catenin (full-length, Uniprot ID P35222) (Homo sapiens (Human), UniProt P35222 2-781); assay: fluorescence polarization competition vs 5FAM-TCF4(10-53) on full-length beta-catenin
T1 construct: The FP protocol says 'full-length beta-Catenin (Uniprot ID P35222)'; also called bCat; B-Catenin
T1 sequence: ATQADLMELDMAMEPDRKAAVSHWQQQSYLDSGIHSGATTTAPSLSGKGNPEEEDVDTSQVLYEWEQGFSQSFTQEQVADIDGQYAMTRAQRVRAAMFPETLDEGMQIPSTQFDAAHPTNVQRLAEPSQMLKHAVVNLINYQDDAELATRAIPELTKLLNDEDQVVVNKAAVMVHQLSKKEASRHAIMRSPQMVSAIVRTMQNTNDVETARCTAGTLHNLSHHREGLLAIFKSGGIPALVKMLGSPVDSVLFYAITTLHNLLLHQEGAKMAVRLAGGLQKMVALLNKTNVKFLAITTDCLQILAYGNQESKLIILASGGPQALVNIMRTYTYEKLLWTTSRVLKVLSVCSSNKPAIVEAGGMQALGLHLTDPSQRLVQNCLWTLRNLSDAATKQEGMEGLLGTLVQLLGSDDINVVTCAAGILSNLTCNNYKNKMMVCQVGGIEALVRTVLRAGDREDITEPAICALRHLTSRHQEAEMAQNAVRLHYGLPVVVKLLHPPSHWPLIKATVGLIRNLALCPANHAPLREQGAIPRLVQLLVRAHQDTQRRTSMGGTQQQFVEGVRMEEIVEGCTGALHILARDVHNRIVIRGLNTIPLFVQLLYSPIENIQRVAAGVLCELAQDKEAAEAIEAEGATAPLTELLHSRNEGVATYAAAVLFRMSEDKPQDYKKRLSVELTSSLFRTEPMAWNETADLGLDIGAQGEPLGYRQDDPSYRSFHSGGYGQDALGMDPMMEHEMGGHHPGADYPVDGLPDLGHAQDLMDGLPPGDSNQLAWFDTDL
Description: (§1) The plate was incubated protected from light for 60 minutes at 20° C. prior to read. Reads were performed on a CLARIOstar plate reader (BMG Labtech) in duplicate, and data were fitted to a 1:1 binding model with hill slope using an in-house script. All provided concentrations are final concentrations.

Binder	IC50 [nM]
Ac-[αAllylPro]DA[B5(28)]DEAAFV[S8]FW[Aib]-NH2 (staple 1-4, 4-11, Stapled peptide) [I-134: Ac-PL3-Asp-Ala-B5-Asp-Glu-Ala-Ala-Phe-Val-S8-Phe-Trp-Aib-NH2]	2700
Ac-[αAllylPro]DA[B5(10)]D[Aad]AAFV[S8]FWQ-NH2 (staple 1-4, 4-11, Stapled peptide) [I-129: Ac-PL3-Asp-Ala-B5-Asp-Aad-Ala-Ala-Phe-Val-S8-Phe-Trp-Gln-NH2]	1980
Ac-[αAllylPro]DA[B5(21)]DEAAFV[S8]F[2Nal]Q-NH2 (staple 1-4, 4-11, Stapled peptide) [I-140: Ac-PL3-Asp-Ala-B5-Asp-Glu-Ala-Ala-Phe-Val-S8-Phe-2NapA-Gln-NH2]	2270
B1	5000
Ac-[αAllylPro]DA[B5]DEAAFV[S7]FWQ-NH2 (staple 1-4, 4-11, Stapled peptide) [I-132: Ac-PL3-Asp-Ala-B5-Asp-Glu-Ala-Ala-Phe-Val-S7-Phe-Trp-Gln-NH2]	5000
Ac-[αAllylPro]DA[B5(4)]DEAAFV[SeN]FWQ-NH2 (staple 1-4, 4-11, Stapled peptide) [I-131: Ac-PL3-Asp-Ala-B5-Asp-Glu-Ala-Ala-Phe-Val-SeN-Phe-Trp-Gln-NH2]	2160

molecular target: T2, full-length beta-Catenin (Uniprot ID P35222) (Homo sapiens (Human), UniProt P35222 1-781); assay: fluorescence polarization competition; 10 nM full-length beta-catenin + 10 nM 5FAM-TCF4(10-53) probe
T2 construct: also called bCat; B-Catenin
T2 sequence: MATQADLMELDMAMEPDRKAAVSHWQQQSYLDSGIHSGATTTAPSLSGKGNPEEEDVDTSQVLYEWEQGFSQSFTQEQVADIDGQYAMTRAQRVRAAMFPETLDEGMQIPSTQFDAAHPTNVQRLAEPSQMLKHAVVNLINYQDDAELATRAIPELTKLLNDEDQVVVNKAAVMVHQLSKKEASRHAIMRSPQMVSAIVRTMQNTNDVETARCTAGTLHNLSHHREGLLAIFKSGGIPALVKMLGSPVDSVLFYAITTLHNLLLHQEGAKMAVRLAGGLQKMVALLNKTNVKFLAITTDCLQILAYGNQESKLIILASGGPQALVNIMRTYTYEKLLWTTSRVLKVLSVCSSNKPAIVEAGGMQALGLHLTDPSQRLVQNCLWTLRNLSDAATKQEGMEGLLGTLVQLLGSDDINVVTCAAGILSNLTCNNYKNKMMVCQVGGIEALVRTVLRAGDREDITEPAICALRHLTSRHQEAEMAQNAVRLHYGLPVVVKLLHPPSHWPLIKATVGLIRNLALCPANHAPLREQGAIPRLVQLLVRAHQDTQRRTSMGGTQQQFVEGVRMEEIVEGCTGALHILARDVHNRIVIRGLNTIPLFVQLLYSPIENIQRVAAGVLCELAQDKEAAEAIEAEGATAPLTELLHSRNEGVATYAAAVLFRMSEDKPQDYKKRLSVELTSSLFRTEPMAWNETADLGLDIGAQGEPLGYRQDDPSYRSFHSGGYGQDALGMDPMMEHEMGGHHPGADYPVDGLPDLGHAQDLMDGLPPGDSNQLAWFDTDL
Description: as §1

Binder	EC50 [nM]
B2	20
B3	30
B4	4470
B5	5000
B6	143
B7	25
B8	63
B9	73
B10	98
B11	192
